Values quoted from earlier work as cited in publication PMC4448168.

Molecular target: α7 nAChR (UniProt P36544)
Sequence of UniProt P36544 (P36544 23-502): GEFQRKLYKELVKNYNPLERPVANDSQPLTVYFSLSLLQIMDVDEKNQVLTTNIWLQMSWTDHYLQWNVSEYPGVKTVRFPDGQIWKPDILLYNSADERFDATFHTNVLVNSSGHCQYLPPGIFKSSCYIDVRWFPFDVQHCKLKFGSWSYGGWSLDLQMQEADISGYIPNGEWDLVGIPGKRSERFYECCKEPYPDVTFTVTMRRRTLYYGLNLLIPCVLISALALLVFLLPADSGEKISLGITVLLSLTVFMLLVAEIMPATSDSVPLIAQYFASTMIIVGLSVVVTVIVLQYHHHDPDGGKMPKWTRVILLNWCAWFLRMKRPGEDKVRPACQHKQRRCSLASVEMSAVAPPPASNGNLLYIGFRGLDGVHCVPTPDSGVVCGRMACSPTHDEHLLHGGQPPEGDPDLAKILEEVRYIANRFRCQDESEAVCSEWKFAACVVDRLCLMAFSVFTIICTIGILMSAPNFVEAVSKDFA

**Q.** Which Ki does the source give for α-elapitoxin-Aa2a (from UniProt P86522) here?
**A.** 214 µM
